Experimental data: patent publication US20030211469A1, “Inhibiting hepatitis c virus processing and replication” (priority 2003, published 2003)

Biological target: NS2/3 (810-1615BK): HCV residues 810-1615 of the BK strain, all of NS2 and most of NS3 (Hepatitis C virus, BK strain) (UniProt P26663)
Assay: co-immunoprecipitation with anti-HSP90 mAb 3G3; NS2/3 synthesized in reticulocyte lysate with or without 10 µM geldanamycin (small molecule)

UniProt P26663, sequence (P26663 810-1615): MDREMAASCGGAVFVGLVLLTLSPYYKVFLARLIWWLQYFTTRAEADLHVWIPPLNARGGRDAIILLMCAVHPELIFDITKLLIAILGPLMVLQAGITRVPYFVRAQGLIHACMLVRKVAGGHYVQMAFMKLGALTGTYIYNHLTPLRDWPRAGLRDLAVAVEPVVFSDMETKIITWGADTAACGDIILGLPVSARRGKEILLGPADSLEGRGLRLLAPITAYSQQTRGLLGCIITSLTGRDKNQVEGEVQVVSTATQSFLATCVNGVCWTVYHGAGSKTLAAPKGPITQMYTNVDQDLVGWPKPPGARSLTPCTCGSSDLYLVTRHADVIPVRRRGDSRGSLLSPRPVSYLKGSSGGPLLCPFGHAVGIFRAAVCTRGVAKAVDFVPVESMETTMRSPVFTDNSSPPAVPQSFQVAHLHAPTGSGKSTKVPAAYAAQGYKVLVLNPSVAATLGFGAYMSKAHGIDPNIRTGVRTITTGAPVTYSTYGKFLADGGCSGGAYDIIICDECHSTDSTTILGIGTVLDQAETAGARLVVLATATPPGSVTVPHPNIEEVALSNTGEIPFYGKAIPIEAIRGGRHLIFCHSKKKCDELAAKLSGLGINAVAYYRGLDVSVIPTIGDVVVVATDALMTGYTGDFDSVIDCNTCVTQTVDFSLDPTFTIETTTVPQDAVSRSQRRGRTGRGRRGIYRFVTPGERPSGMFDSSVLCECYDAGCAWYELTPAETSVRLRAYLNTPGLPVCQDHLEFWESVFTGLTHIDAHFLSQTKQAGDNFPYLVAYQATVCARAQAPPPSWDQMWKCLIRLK

heat shock protein 90 (HSP90) (from UniProt P30947 2-726)
decrease of the amount of NS2/3 co-immunoprecipitated in the presence of 10 µM geldanamycin: 60%
